# Experimental data as given in paper PMC9772228, “Structure of a RecT/Redβ family recombinase in complex with a duplex intermediate of DNA annealing”.
# T1: LiRecT WT (Listeria innocua CLIP 11262, UniProt Q92FL9 1-271)
# T1 sequence: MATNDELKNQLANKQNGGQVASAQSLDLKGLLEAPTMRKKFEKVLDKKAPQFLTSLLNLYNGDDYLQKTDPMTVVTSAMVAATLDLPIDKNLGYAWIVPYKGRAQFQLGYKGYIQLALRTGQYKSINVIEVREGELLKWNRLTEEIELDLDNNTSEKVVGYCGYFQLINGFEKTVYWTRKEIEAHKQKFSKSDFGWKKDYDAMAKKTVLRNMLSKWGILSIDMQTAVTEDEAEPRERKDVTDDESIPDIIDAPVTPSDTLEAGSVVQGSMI
# T2: λ-Redβ (bacteriophage lambda, UniProt P03698 1-261)
# T2 sequence: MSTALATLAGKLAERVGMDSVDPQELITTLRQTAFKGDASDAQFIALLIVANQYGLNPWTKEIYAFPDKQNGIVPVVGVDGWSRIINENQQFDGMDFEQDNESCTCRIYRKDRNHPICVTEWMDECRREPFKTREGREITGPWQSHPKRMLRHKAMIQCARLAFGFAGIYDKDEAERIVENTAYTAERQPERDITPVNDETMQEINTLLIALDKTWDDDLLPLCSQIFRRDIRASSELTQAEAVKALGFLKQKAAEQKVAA
# B1: 75- (ssDNA)
# DNA: TTAAAACATGTTGAGCTACAGCACCAGATTCAGCAATTAAGCTCTAAGCCATCCGCAAAAATGACCTCTTATCAA
# B2: 75-/75+ annealed duplex (sequential) (dsDNA)
# DNA 1: B1 DNA
# DNA 2: TTGATAAGAGGTCATTTTTGCGGATGGCTTAGAGCTTAATTGCTGAATCTGGTGCTGTAGCTCAACATGTTTTAA
# B3: 75+ (ssDNA)
# DNA: B2 DNA 2
# B4: 80-/80+ annealed duplex (sequential) (dsDNA)
# DNA 1: CATATTTAAAACATGTTGAGCTACAGCACCAGATTCAGCAATTAAGCTCTAAGCCATCCGCAAAAATGACCTCTTATCAA
# DNA 2: TTGATAAGAGGTCATTTTTGCGGATGGCTTAGAGCTTAATTGCTGAATCTGGTGCTGTAGCTCAACATGTTTTAAATATG
# B5: 80- (ssDNA)
# DNA: B4 DNA 1
# B6: 80+ (ssDNA)
# DNA: B4 DNA 2
# B7: 50-mer duplex intermediate (sequential addition) (dsDNA)
# DNA 1: GCGGATGGCTTAGAGCAGAATCGCCCTGCATAGCTCGATTTTTGCGGATG
# DNA 2: CCATCCGCAAAAATCGAGCTATGCAGGGCGATTCTGCTCTAAGCCATCCG
# B8: 83-/83+ annealed duplex (sequential) (dsDNA)
# DNA 1: TTGCATATTTAAAACATGTTGAGCTACAGCACCAGATTCAGCAATTAAGCTCTAAGCCATCCGCAAAAATGACCTCTTATCAA
# DNA 2: TTGATAAGAGGTCATTTTTGCGGATGGCTTAGAGCTTAATTGCTGAATCTGGTGCTGTAGCTCAACATGTTTTAAATATGCAA
# B9: 83- (ssDNA)
# DNA: B8 DNA 1
# B10: 83+ (ssDNA)
# DNA: B8 DNA 2
# Experiments:
# [1] = target: LiRecT (RecT/Redβ family recombinase from the A118 prophage of Listeria innocua) (Listeria innocua); assay: native MS; free LiRecT without DNA at 30 µM, 100 mM ammonium acetate pH 7
# LiRecT WT [2] = target: T1, LiRecT WT; assay: native MS; 16 LiRecT:1 DNA among species; EMSA: PBS pH 7.4 (or KH2PO4/10 mM MgCl2 pH 6.0), 3.6 or 5 uM protein, 25 uM nt DNA, 37 C 15 min per strand, 0.8% agarose 1x TBE; cryo-EM: 20 mM KH2PO4 (Results: 10 mM), 10 mM MgCl2 pH 6.0, 37 C; native MS: 100 mM ammonium acetate pH 7, 37 C; conditions: protein: recombinant; tags: N-terminal 6His, thrombin-cleaved in main prep; chain copies: 10; single strand
# LiRecT WT [3] = target: T1, LiRecT WT; assay: native MS; 1-2 fewer subunits than 83-mer complex; EMSA: PBS pH 7.4 (or KH2PO4/10 mM MgCl2 pH 6.0), 3.6 or 5 uM protein, 25 uM nt DNA, 37 C 15 min per strand, 0.8% agarose 1x TBE; cryo-EM: 20 mM KH2PO4 (Results: 10 mM), 10 mM MgCl2 pH 6.0, 37 C; native MS: 100 mM ammonium acetate pH 7, 37 C; conditions: protein: recombinant; tags: N-terminal 6His, thrombin-cleaved in main prep; chain copies: 10; blunt
# LiRecT WT [4] = target: T1, LiRecT WT; assay: native MS; 15 LiRecT:2 DNA among species; EMSA: PBS pH 7.4 (or KH2PO4/10 mM MgCl2 pH 6.0), 3.6 or 5 uM protein, 25 uM nt DNA, 37 C 15 min per strand, 0.8% agarose 1x TBE; cryo-EM: 20 mM KH2PO4 (Results: 10 mM), 10 mM MgCl2 pH 6.0, 37 C; native MS: 100 mM ammonium acetate pH 7, 37 C; conditions: protein: recombinant; tags: N-terminal 6His, thrombin-cleaved in main prep; chain copies: 10; single strand
# LiRecT WT [5] = target: T1, LiRecT WT; assay: native MS; 17 LiRecT:1:1; EMSA: PBS pH 7.4 (or KH2PO4/10 mM MgCl2 pH 6.0), 3.6 or 5 uM protein, 25 uM nt DNA, 37 C 15 min per strand, 0.8% agarose 1x TBE; cryo-EM: 20 mM KH2PO4 (Results: 10 mM), 10 mM MgCl2 pH 6.0, 37 C; native MS: 100 mM ammonium acetate pH 7, 37 C; conditions: protein: recombinant; tags: N-terminal 6His, thrombin-cleaved in main prep; chain copies: 10; blunt
# LiRecT WT [6] = target: T1, LiRecT WT; assay: native MS; 17 LiRecT:2 DNA among species; EMSA: PBS pH 7.4 (or KH2PO4/10 mM MgCl2 pH 6.0), 3.6 or 5 uM protein, 25 uM nt DNA, 37 C 15 min per strand, 0.8% agarose 1x TBE; cryo-EM: 20 mM KH2PO4 (Results: 10 mM), 10 mM MgCl2 pH 6.0, 37 C; native MS: 100 mM ammonium acetate pH 7, 37 C; conditions: protein: recombinant; tags: N-terminal 6His, thrombin-cleaved in main prep; chain copies: 10; single strand
# LiRecT WT [7] = target: T1, LiRecT WT; assay: EMSA; EMSA: PBS pH 7.4 (or KH2PO4/10 mM MgCl2 pH 6.0), 3.6 or 5 uM protein, 25 uM nt DNA, 37 C 15 min per strand, 0.8% agarose 1x TBE; cryo-EM: 20 mM KH2PO4 (Results: 10 mM), 10 mM MgCl2 pH 6.0, 37 C; native MS: 100 mM ammonium acetate pH 7, 37 C; conditions: protein: recombinant, tags: N-terminal 6His, thrombin-cleaved in main prep, chain copies: 10, single strand
# λ-Redβ = target: T2, λ-Redβ; assay: EMSA; sequential addition; EMSA: PBS pH 7.4 (or KH2PO4/10 mM MgCl2 pH 6.0), 3.6 or 5 uM protein, 25 uM nt DNA, 37 C 15 min per strand, 0.8% agarose 1x TBE; cryo-EM: 20 mM KH2PO4 (Results: 10 mM), 10 mM MgCl2 pH 6.0, 37 C; native MS: 100 mM ammonium acetate pH 7, 37 C; conditions: protein: recombinant; label: 5'-Cy3;5'-Cy5; 49 bp, 1 nt 5' overhang at each end
# LiRecT WT [8] = target: T1, LiRecT WT; assay: as above; conditions: protein: recombinant; tags: N-terminal 6His, thrombin-cleaved in main prep; chain copies: 10; label: 5'-Cy3;5'-Cy5; 49 bp, 1 nt 5' overhang at each end
# LiRecT WT [9] = target: T1, LiRecT WT; assay: native MS; 17-18 LiRecT:1:1; EMSA: PBS pH 7.4 (or KH2PO4/10 mM MgCl2 pH 6.0), 3.6 or 5 uM protein, 25 uM nt DNA, 37 C 15 min per strand, 0.8% agarose 1x TBE; cryo-EM: 20 mM KH2PO4 (Results: 10 mM), 10 mM MgCl2 pH 6.0, 37 C; native MS: 100 mM ammonium acetate pH 7, 37 C; conditions: protein: recombinant; tags: N-terminal 6His, thrombin-cleaved in main prep; chain copies: 10; blunt
# LiRecT WT [10] = target: T1, LiRecT WT; assay: cryo-EM; 10 mM MgCl2, pH 6.0; EMSA: PBS pH 7.4 (or KH2PO4/10 mM MgCl2 pH 6.0), 3.6 or 5 uM protein, 25 uM nt DNA, 37 C 15 min per strand, 0.8% agarose 1x TBE; cryo-EM: 20 mM KH2PO4 (Results: 10 mM), 10 mM MgCl2 pH 6.0, 37 C; native MS: 100 mM ammonium acetate pH 7, 37 C; conditions: protein: recombinant; tags: N-terminal 6His, thrombin-cleaved in main prep; chain copies: 10; single strand
molecule,measurement,setting,value
LiRecT (RecT/Redβ family recombinase from the A118 prophage of Listeria innocua) (natural protein),stoichiometry N,[1],< 9
B1,binding result,LiRecT WT [2],binds
B2,binding result,LiRecT WT [3],binds
B3,binding result,LiRecT WT [4],binds
B4,binding result,LiRecT WT [5],binds
B5,binding result,LiRecT WT [6],binds
B6,binding result,LiRecT WT [6],binds
GCGGATGGCTTAGAGCAGAATCGCCCTGCATAGCTCGATTTTTGCGGATG (ssDNA) [Cy3-50mer],binding result,LiRecT WT [7]; label: 5'-Cy3,binds
CCATCCGCAAAAATCGAGCTATGCAGGGCGATTCTGCTCTAAGCCATCCG (ssDNA) [Cy5-50mer],binding result,LiRecT WT [7]; label: 5'-Cy5,binds
B7,binding result,λ-Redβ,binds
same,binding result,LiRecT WT [8],binds
B8,binding result,LiRecT WT [9],binds
B9,binding result,LiRecT WT [10],binds
B10,binding result,LiRecT WT [6],binds
